B1: Androgen receptor (Homo sapiens), P10275 (parent)
chain: MEVQLGLGRVYPRPPSKTYRGAFQNLFQSVREVIQNPGPRHPEAASAAPPGASLLLLQQQQQQQQQQQQQQQQQQQQQQQETSPRQQQQQQGEDGSPQAHRRGPTGYLVLDEEQQPSQPQSALECHPERGCVPEPGAAVAASKGLPQQLPAPPDEDDSAAPSTLSLLGPTFPGLSSCSADLKDILSEASTMQLLQQQQQEAVSEGSSSGRAREASGAPTSSKDNYLGGTSTISDNAKELCKAVSVSMGLGVEALEHLSPGEQLRGDCMYAPLLGVPPAVRPTPCAPLAECKGSLLDDSAGKSTEDTAEYSPFKGGYTKGLEGESLGCSGSAAAGSSGTLELPSTLSLYKSGALDEAAAYQSRDYYNFPLALAGPPPPPPPPHPHARIKLENPLDYGSAWAAAAAQCRYGDLASLHGAGAAGPGSGSPSAAASSSWHTLFTAEEGQLYGPCGGGGGGGGGGGGGGGGGGGGGGGEAGAVAPYGYTRPPQGLAGQESDFTAPDVWYPGGMVSRVPYPSPTCVKSEMGPWMDSYSGPYGDMRLETARDHVLPIDYYFPPQKTCLICGDEASGCHYGALTCGSCKVFFKRAAEGKQKYLCASRNDCTIDKFRRKNCPSCRLRKCYEAGMTLGARKLKKLGNLKLQEEGEASSTTSPTEETTQKLTVSHIEGYECQPIFLNVLEAIEPGVVCAGHDNNQPDSFAALLSSLNELGERQLVHVVKWAKALPGFRNLHVDDQMAVIQYSWMGLMVFAMGWRSFTNVNSRMLYFAPDLVFNEYRMHKSRMYSQCVRMRHLSQEFGWLQITPQEFLCMKALLLFSIIPVDGLKNQKFFDELRMNYIKELDRIIACKRKNPTSCSRRFYQLTKLLDSVQPIARELHQFTFDLLIKSHMVSVDFPEMMAEIISVQVPKILSGKVKPIYFHTQ
partner: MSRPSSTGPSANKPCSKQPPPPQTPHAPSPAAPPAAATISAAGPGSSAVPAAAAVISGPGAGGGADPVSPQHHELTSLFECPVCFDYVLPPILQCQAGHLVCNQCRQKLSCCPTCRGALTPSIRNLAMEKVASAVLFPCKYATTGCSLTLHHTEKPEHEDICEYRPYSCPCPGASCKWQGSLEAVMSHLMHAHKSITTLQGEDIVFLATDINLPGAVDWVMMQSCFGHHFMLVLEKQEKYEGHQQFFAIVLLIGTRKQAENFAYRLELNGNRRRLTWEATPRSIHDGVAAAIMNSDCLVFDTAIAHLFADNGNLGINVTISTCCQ

Variants of: B1
Settings: with siah2_mouse Siah2, Q06986

Variant	effect of a mutation on the interaction
V731M	decreasing interaction
R727L	decreasing interaction
L702H	decreasing interaction
V716M	decreasing interaction

The remaining lines, values ahead:

effect of a mutation on the interaction	Variant
decreasing interaction	T878A
decreasing interaction	H875Y
decreasing interaction	Q799E
decreasing interaction	F755L
